Here are results for six molecules from patent publication US20200123558A1 (UNIVERSITY OF SASKATCHEWAN AND NATIONAL RESEARCH COUNCIL OF …, published 2020).

Like-named read-outs stand apart in the source and are kept apart here.

Common to all, as to assay: yeast 2-hybrid
Assay [1] concerns the target T1, Apc10 (yeast, UniProt P53068 1-250, limits assumed).
T1 construct: Expressed as a Y2H bait fusion; also called yeast Apc10 APC subunit; Apc10 bait
T1 sequence (looked up): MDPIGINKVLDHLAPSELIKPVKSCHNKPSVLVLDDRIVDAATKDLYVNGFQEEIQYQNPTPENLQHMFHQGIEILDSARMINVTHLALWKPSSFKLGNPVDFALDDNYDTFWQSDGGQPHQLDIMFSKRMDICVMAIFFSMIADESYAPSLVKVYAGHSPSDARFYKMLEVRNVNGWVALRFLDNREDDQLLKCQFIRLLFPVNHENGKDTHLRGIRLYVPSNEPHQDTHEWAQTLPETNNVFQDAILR

The next assay deals with T2, Apc5 (yeast, UniProt Q08683 1-685, limits assumed).
T2 construct: Expressed as a Y2H bait fusion; also called Apc5 bait
T2 sequence (looked up): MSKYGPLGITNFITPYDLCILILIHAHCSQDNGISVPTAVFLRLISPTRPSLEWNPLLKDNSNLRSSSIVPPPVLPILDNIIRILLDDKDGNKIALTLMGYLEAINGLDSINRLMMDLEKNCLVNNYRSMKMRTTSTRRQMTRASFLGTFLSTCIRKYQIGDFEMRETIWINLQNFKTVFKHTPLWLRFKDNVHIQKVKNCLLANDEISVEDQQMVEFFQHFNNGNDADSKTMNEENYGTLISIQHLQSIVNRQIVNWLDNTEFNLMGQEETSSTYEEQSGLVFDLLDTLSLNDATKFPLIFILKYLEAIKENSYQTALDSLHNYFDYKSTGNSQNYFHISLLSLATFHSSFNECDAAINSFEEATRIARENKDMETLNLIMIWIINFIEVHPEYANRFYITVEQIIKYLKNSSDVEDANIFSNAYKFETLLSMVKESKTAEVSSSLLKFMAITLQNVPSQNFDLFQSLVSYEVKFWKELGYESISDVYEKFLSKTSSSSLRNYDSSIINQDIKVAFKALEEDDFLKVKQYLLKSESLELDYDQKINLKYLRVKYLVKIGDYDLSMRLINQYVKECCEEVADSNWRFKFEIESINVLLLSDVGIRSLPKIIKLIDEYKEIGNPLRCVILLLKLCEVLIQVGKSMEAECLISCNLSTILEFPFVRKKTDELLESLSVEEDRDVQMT

Assay [2] concerns the target T1, Apc10. The source holds these as a separate data set.

B1: peptide 50-1 (peptide)
peptide: RRCLSIRTENLAWEGKFLRV
modifications: Displayed in the assay as the variable loop of a TrxA scaffold fused to a Y2H prey domain; carrier not written.
notes: not shown: TrxA (thioredoxin) scaffold halves flanking the loop and the Y2H prey fusion domain
In the case of B1, the binding result with Apc10 [1] is recorded as “binds”.

B2: peptide 24-1 (peptide)
peptide: SKWTWRMCMSWTVDRFAPVPWP
modifications: Displayed in the assay as the variable loop of a TrxA scaffold fused to a Y2H prey domain; carrier not written.
notes: as for B1
With B2, the binding result in the assay with Apc5 is reported as “binds”.

B3: peptide C43-4 (peptide)
peptide: NGSSHNDLRVRRLTLISRLC
modifications: Shown in the assay as the variable loop of a Trx scaffold fused to a Y2H prey domain. The letters do not carry this.
notes: also called C43-4 aptamer; Htz1-like peptide; not shown: Thioredoxin (TrxA) scaffold flanking the loop and the Y2H prey fusion domain
With B3, in the assay with Apc10 [1], the binding result is “binds”.

B4: peptide C43-4-3 (peptide, not shown: large carriers)
peptide: NGSSHNDARVRRLTLISRLC
modifications: Presumably shown in the Trx scaffold like its parent. The letters do not carry this.
notes: C43-4 with leucine 8 replaced by alanine; also called C43-L8A
Regarding B4, the binding result with Apc10 [2] is “binds”.

B5: peptide 1-8 (peptide)
peptide: GRMLMTYLMYFMVLWVPRPWGPPL
modifications: Displayed in the assay as the variable loop of a TrxA scaffold fused to a Y2H prey domain; carrier not written.
notes: as for B1
As for B5, the binding result in the assay with Apc10 [1] is listed as “binds”.

B6: peptide C2-4B (peptide)
peptide: RMPQWWQWMWV
modifications: Shown as the variable loop of the Trx scaffold on a Y2H prey vector. The letters do not carry this.
notes: also called 11-3; C2-4B aptamer; not shown: TrxA scaffold and Y2H fusion domain
B6: in the assay with Apc5, the binding result is “binds”.
